Laboratory results: patent US20170275380A1 (ROCHE DIAGNOSTICS OPERATIONS, published 2017)
Values belong to the binder of their own block, whether it stands above or below them. No end group written: not given here.

What was measured:
[1] = biological target: T1, human HER2(1223-1236)-Bi-PEG-amide (human, also: Bi-PEG (biotin-PEG), place not given here); assay: SPR kinetic screening (Biacore A100); mAb captured by anti-mouse IgG Fc; peptide grafted on streptavidin as analyte; Langmuir model; anti-HER2 antibody, HER2 peptide
T1 construct: Injected as analyte singly grafted on streptavidin; also called HER2 peptide
T1 peptide: WDQDPPERGAPPST-NH2
Procedure: (§1) A BIACORE™ A100 instrument under control of the software version V1.1 is used. A BIACORE™ CMS chip is mounted into the instrument and is hydrodynamically addressed conditioned according to the manufacturer's instructions. As a running buffer an HBS-EP buffer is used (10 mM HEPES (pH 7.4), 150 mM NaCl, 1 mM EDTA, 0.05% (w/v) P20). A polyclonal rabbit anti-mouse IgG Fc capture antibody is immobilized at 30 μg/ml in 10 mM sodium acetate buffer (pH 4.5) to spots 1, 2, 4 and 5 in flow cells 1, 2, 3 and 4 at 10,000 RU. The antibody is covalently immobilized via NHS/EDC chemistry. The sensor is deactivated thereafter with a 1 M ethanolamine solution. Spots 1 and 5 are used for the determination and spots 2 and 4 are used as reference. Prior to application to the sensor chip the hybridoma supernatants containing mAbs are diluted 1:2 in HBS-EP buffer. The diluted solution is applied at a flow rate of 30 μl/min for 1 min. Immediately thereafter the analyte, human HER3(1242-1267)-Bi-PEG-amide (SEQ ID NO:26) or human HER2(1223-1236)-Bi-PEG-amide (SEQ ID NO:25), singly grafted on streptavidin, is injected at a flow rate of 30 μl/min for 2 min. Thereafter, the signal is recorded for 5 min dissociation time. The sensor is regenerated by injecting a 10 mM glycine-HCl solution (pH 1.7) for 2 min, at a flow rate of 30 μl/min.

[2] = biological target: T2, IGF-1R(1340-1366)[1346-pTyr; Glu(Bi-PEG-1340]amid (phosphotyrosine at 1346; PEG-linker with biotin bound via glutamic acid corresponding to position 1340; C-terminal amide); assay: SPR (Biacore 2000, 25 C); hybridoma supernatant 1:2 over biotinylated peptide on SA chip
T2 construct: also called pIGF-1R peptide (biotinylated); phosphorylated IGF-1R peptide
T2 peptide: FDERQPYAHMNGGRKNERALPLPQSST
Procedure: (§2) Further, surface plasmon resonance was used to determine the antigen specificity. A BIACORE™ 2000 instrument (GE Healthcare) was used with a BIACORE™ SA sensor mounted into the system at T=25° C. and was preconditioned at 100 μl/min with 3×1 min injection of 1 M NaCl in 50 mM NaOH and 1 min 10 mM HCl. The system buffer was HBS-ET (10 mM HEPES pH 7.4, 150 mM NaCl, 1 mM EDTA, 0.05% TWEEN® 20). The sample buffer was the system buffer+1 mg/ml CMD (Carboxymethyldextrane, Sigma).
(§3) Subsequently, biotinylated peptides were captured on the SA surface in the respective flow cells. The flow cells finally were saturated with 2 μM d-biotin. […] Flow cell 1 served as a reference. A blank buffer injection was used instead of an antigen injection to double reference the data by buffer signal subtraction. The data was evaluated according to the BIACORE™ evaluation software 1.1.1. The signal height was measured at the end of the injection time, Binding Late (RU).

[3] = biological target: T3, IGF-1R(1340-1366); Glu(Bi-PEG-1340]amid (PEG-linker with biotin bound via glutamic acid corresponding to position 1340; C-terminal amide); assay: as above
T3 construct: also called IGF-1R peptide (biotinylated, non-phosphorylated); IGF-1R(1340-1366)PEG-Bi
T3 peptide: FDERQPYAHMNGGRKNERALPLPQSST
Procedure: as §2, §3

[4] = biological target: Bi-InsulinR(1356-1382)p1361 (phosphotyrosine at 1361; biotin); assay: as above
Sequence of Bi-InsulinR(1356-1382)p1361 (phosphotyrosine at 1361; biotin) (peptide, as listed by the source): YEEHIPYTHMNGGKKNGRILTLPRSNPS
Procedure: as §2, §3

[5] = biological target: T4, human HER3(1242-1267)-Bi-PEG-amide (human, Bi-PEG (biotin-PEG); C-terminal amide); assay: SPR kinetic screening (Biacore A100); mAb captured by anti-mouse IgG Fc; peptide grafted on streptavidin as analyte; Langmuir model; anti-HER3 antibody, HER3 peptide
T4 construct: Injected as analyte singly grafted on streptavidin; also called HER3 peptide
T4 peptide: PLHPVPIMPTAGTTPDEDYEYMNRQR
Procedure: as §1

koff [1]: 0.000963 s⁻¹
B1: antibody 4.1.43 (antibody, V domains shown)
VH: EVQLQQSGPVLVKPGASVKMSCRPSGYTFTDYNMHWVKQSHEKSLEWIGYINPKNGIISYNQKFKDKATLTVNKSSRTAYMELRSLTSEDSAVYFCAGDYWGQGTSVTVSS
VL: DVVMTQTPLSLPVSLGDQASISCRSSQSLVHSNGNTYLHWYLQKPGQSPKLLISKVSNRFSGVPDRFSGSGSGTDFTLKISRVEAEDLGVYFCSQSIHLPWTFGGGTKLEIK
notes: Mouse monoclonal antibody, tested from hybridoma supernatant captured by anti-mouse IgG Fc; also called selected antibody directed against HER2

Binding Late (RU) [2]: 265 RU | Binding Late (RU) [3]: 199 RU | Binding Late (RU) [4]: 0 RU
B2: mAb 1.4.168 (antibody, V domains shown)
VH: DVKLVESGGGLVKPGGSLKLSCAASGFTFSDYPMSWVRQTPEKRLEWVATITTGGTYTYYPDSIKGRFTISRDNAKNTLYLQMGSLQSEDAAMYYCTRVKTDLWWGLAYWGQGTLVTVSA
VL: QLVLTQSSSASFSLGASAKLTCTLSSQHSTYTIEWYQQQPLKPPKYVMELKKDGSHTTGDGIPDRFSGSSSGADRYLSISNIQPEDESIYICGVGDTIKEQFVYVFGGGTKVTVLG
notes: Murine monoclonal IgG from hybridoma; also called M-1.4.168-IgG; M-1.004.168-IgG

koff [5]: 0.0023 s⁻¹
B3: antibody 7.2.32 (antibody, V domains shown)
VH: EVQLQESGGGLVQPKGSLQLSCAASGFTFNTYAMHWVRQAPGKGLEWVARIRTESSDYATDYADSVKDRFIISRDDSQNMLYLQMNNLKSEDTAIYYCVRSSGFDYWGQGTTLTVSS
VL: DIQMTQSPSLPVSLGDQASISCRSSQSLVHDNGNTYLHWFLQKPGQSPKLLIYKVSNRFSGVPDRFGGSGSGTDFTLKISGVEAEDLGVYFCSQGTHVPTFGGGTKLEIK
notes: Mouse monoclonal antibody, tested from hybridoma supernatant captured by anti-mouse IgG Fc; also called selected antibody directed against HER3
